The target in data set [1] is T1, hTRMT2A FL (WT) (Homo sapiens, UniProt Q8IZ69 1-625).
T1 sequence: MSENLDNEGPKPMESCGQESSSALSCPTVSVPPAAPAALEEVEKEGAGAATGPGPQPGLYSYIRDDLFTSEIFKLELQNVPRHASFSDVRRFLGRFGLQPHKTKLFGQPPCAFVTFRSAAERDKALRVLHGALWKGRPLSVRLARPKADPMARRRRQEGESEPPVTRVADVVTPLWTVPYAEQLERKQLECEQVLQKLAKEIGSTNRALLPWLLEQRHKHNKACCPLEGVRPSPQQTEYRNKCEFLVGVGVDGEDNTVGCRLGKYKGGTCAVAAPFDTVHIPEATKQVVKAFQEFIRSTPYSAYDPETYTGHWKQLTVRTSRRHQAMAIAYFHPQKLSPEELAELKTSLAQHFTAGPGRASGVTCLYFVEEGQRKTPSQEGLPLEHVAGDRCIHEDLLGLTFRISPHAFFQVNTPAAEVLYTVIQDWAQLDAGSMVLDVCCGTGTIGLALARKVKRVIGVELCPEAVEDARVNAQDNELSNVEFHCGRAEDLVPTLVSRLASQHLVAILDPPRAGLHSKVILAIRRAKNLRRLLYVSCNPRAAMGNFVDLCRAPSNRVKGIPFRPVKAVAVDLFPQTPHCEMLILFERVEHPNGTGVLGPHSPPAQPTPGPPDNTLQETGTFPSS
The experiment in a line: EMSA; low nM KD range; poly(U) competitor; EMSA: 50 mM HEPES-NaOH pH 7.5, 150 mM NaCl, 4% glycerol, 2.5 ng/ul poly(U), 5 nM RNA, 0-1.25 uM protein (final, as stated), 20 min room temperature; SPR: 150 mM NaCl, 50 mM HEPES-NaOH 7.5, 0.05% Tween, 25 C. The note with it: protein: recombinant; tags: N-terminal His-SUMO tag cleaved; label: 5'-32P; tRNA cloverleaf. On the technique in general: In EMSA bound probe runs differently from free probe, usually more slowly.

Data set [2] addresses T2, hTRMT2A CDM (catalytic death mutant) (Homo sapiens, UniProt Q8IZ69 1-625, E76A;K104E;F113A;K242A;F409A;Q411A;D510A;C538A).
T2 sequence: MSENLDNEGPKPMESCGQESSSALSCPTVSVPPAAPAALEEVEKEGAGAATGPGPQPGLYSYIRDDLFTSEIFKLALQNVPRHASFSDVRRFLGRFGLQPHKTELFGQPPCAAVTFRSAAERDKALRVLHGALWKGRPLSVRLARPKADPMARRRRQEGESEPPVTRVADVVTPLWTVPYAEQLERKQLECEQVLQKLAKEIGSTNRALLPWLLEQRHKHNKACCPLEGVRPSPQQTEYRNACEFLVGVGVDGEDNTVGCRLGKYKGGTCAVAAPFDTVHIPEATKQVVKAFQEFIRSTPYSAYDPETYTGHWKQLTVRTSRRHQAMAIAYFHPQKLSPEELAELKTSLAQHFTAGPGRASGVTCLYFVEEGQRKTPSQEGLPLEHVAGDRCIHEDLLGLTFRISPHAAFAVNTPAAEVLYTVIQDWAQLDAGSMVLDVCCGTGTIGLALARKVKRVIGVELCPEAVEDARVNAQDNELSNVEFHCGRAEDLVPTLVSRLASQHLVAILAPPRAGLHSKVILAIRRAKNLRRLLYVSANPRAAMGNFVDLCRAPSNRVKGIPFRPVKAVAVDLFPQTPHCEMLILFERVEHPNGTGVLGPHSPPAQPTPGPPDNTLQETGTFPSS
The experiment in a line: SPR; steady-state fit, apparent KD; EMSA: 50 mM HEPES-NaOH pH 7.5, 150 mM NaCl, 4% glycerol, 2.5 ng/ul poly(U), 5 nM RNA, 0-1.25 uM protein (final, as stated), 20 min room temperature; SPR: 150 mM NaCl, 50 mM HEPES-NaOH 7.5, 0.05% Tween, 25 C. As to conditions: protein: recombinant; tags: N-terminal His-SUMO tag cleaved; label: 3' biotin; tRNA cloverleaf.

For data set [3], the target named is T1, hTRMT2A FL (WT). Described as above. As to conditions: protein: recombinant; tags: N-terminal His-SUMO tag cleaved; label: 3' biotin; tRNA cloverleaf.
Data set [4] addresses T1, hTRMT2A FL (WT). The experiment in a line: size exclusion chromatography; 1:1 mix; elution shift 17.41 to 15.46 ml; EMSA: 50 mM HEPES-NaOH pH 7.5, 150 mM NaCl, 4% glycerol, 2.5 ng/ul poly(U), 5 nM RNA, 0-1.25 uM protein (final, as stated), 20 min room temperature; SPR: 150 mM NaCl, 50 mM HEPES-NaOH 7.5, 0.05% Tween, 25 C. As to conditions: protein: recombinant; tags: N-terminal His-SUMO tag cleaved; tRNA cloverleaf. For orientation: Size exclusion chromatography separates by hydrodynamic size, large species first.

The target of data set [5] is T2, hTRMT2A CDM (catalytic death mutant). The experiment in a line: EMSA; similar to WT, nM KD range, more supershifts; poly(U) competitor; EMSA: 50 mM HEPES-NaOH pH 7.5, 150 mM NaCl, 4% glycerol, 2.5 ng/ul poly(U), 5 nM RNA, 0-1.25 uM protein (final, as stated), 20 min room temperature; SPR: 150 mM NaCl, 50 mM HEPES-NaOH 7.5, 0.05% Tween, 25 C. The note with it: protein: recombinant; tags: N-terminal His-SUMO tag cleaved; label: 5'-32P; tRNA cloverleaf.

For data set [6], the target named is T1, hTRMT2A FL (WT). The experiment in a line: EMSA; low nM KD range; shift already at 60 nM; poly(U) competitor; EMSA: 50 mM HEPES-NaOH pH 7.5, 150 mM NaCl, 4% glycerol, 2.5 ng/ul poly(U), 5 nM RNA, 0-1.25 uM protein (final, as stated), 20 min room temperature; SPR: 150 mM NaCl, 50 mM HEPES-NaOH 7.5, 0.05% Tween, 25 C. The note with it: protein: recombinant; tags: N-terminal His-SUMO tag cleaved; label: 5'-32P; tRNA cloverleaf.

B1: tRNAAla-AGC (A54) (structured_RNA)
RNA: GGGGAAUUAGCUCAGGCGGUAGAGCGCUCGCUUAGCAUGCGAGAGGUAGCGGGAUCGACGCCCGCAUUCUCCA
Consider B1, for which the binding result in data set [1] was “binds”.

B2: tRNAGln-TTG, 3' biotin (structured_RNA)
RNA: GGUCCCAUGGUGUAAUGGUUAGCACUCUGGACUUUGAAUCCAGCGAUCCGAGUUCAAAUCUCGGUGGGACCUCCA
modifications: 3' biotin
On to B2, for which the Kd in data set [2] was 428 ± 71 nM; in data set [3], 306 ± 60 nM.

B3: tRNAGln-TTG, unlabeled (structured_RNA)
RNA: GGUCCCAUGGUGUAAUGGUUAGCACUCUGGACUUUGAAUCCAGCGAUCCGAGUUCAAAUCUCGGUGGGACCUCCA
As for B3, the binding result in data set [4] was “binds”.

B4: tRNAGln U54G (structured_RNA)
RNA: GGUCCCAUGGUGUAAUGGUUAGCACUCUGGACUUUGAAUCCAGCGAUCCGAGGUCAAAUCUCGGUGGGACCUCCA
As to B4, in data set [1], the binding result is reported as “binds”.

B5: tRNAGln-TTG (structured_RNA)
RNA: GGUCCCAUGGUGUAAUGGUUAGCACUCUGGACUUUGAAUCCAGCGAUCCGAGUUCAAAUCUCGGUGGGACCUCCA
As to B5, the binding result in data set [5] and in data set [6] was “binds” in each case.

The record behind these values is article PMC10484741, “Human TRMT2A methylates tRNA and contributes to translation fidelity”.
